From patent publication US20170137467A1 (CHROMOTEK, published 2017)
Positions count from the first letter of the chain named.

T1: BC2T A6F (human)
T1 construct: position 6 library (BC2TA6X), row F
T1 peptide: Ac-PDRKAFVSHWQQ-NH2

T2: BC2T A6N (human)
T2 construct: position 6 library (BC2TA6X), row N
T2 peptide: Ac-PDRKANVSHWQQ-NH2

T3: BC2T A6Y (human)
T3 construct: position 6 library (BC2TA6X), row Y
T3 peptide: Ac-PDRKAYVSHWQQ-NH2

T4: BC2T A6K (human)
T4 construct: position 6 library (BC2TA6X), row K
T4 peptide: Ac-PDRKAKVSHWQQ-NH2

T5: BC2T A6R (human)
T5 construct: position 6 library (BC2TA6X), row R
T5 peptide: Ac-PDRKARVSHWQQ-NH2

T6: BC2T A6D (human)
T6 construct: position 6 library (BC2TA6X), row D
T6 peptide: Ac-PDRKADVSHWQQ-NH2

T7: BC2T P1W (human)
T7 construct: position 1 library, row W
T7 peptide: Ac-WDRKAAVSHWQQ-NH2

T8: BC2T V7P (human)
T8 construct: position 7 library, row P
T8 peptide: Ac-PDRKAAPSHWQQ-NH2

T9: BC2T V7F (human)
T9 construct: position 7 library, row F
T9 peptide: Ac-PDRKAAFSHWQQ-NH2

T10: BC2T V7W (human)
T10 construct: position 7 library, row W
T10 peptide: Ac-PDRKAAWSHWQQ-NH2

T11: BC2T P1S (human)
T11 construct: position 1 library, row S
T11 peptide: Ac-SDRKAAVSHWQQ-NH2

T12: BC2T V7R (human)
T12 construct: position 7 library, row R
T12 peptide: Ac-PDRKAARSHWQQ-NH2

T13: BC2T V7E (human)
T13 construct: position 7 library, row E
T13 peptide: Ac-PDRKAAESHWQQ-NH2

T14: BC2T P1E (human)
T14 construct: position 1 library, row E
T14 peptide: Ac-EDRKAAVSHWQQ-NH2

T15: BC2T D2S (human)
T15 construct: position 2 library, row S
T15 peptide: Ac-PSRKAAVSHWQQ-NH2

T16: BC2T D2T (human)
T16 construct: position 2 library, row T
T16 peptide: Ac-PTRKAAVSHWQQ-NH2

T17: BC2T R3Q (human)
T17 construct: position 3 library (BC2TR3X), row Q
T17 peptide: Ac-PDQKAAVSHWQQ-NH2

T18: BC2T R3D (human)
T18 construct: position 3 library (BC2TR3X), row D
T18 peptide: Ac-PDDKAAVSHWQQ-NH2

T19: BC2T K4Y (human)
T19 construct: position 4 library, row Y
T19 peptide: Ac-PDRYAAVSHWQQ-NH2

T20: BC2T A5Q (human)
T20 construct: position 5 library, row Q
T20 peptide: Ac-PDRKQAVSHWQQ-NH2

T21: BC2T A5H (human)
T21 construct: position 5 library, row H
T21 peptide: Ac-PDRKHAVSHWQQ-NH2

T22: BC2T A5D (human)
T22 construct: position 5 library, row D
T22 peptide: Ac-PDRKDAVSHWQQ-NH2

B1: BC2 nanobody (BC2-Nb) (VHH)
VHH: QVQLVESGGGLVQPGGSLTLSCTASGFTLDHYDIGWFRQAPGKEREGVSCINNSDDDTYYADSVKGRFTIFMDNAKDTVYLQMNSLKPEDTAIYYCAEARGCKRGRYEYDFWGQGTQVTVSS
notes: immobilised on agarose/sepharose beads in this assay; also called BC2 nanotrap (immobilised form); not shown: C-terminal 6xHis-tag added by pHEN6 vector
B2: BC2-NbR106S (VHH)
VHH: B1 VHH with R106S
notes: immobilised on beads in this assay; not shown: C-terminal 6xHis-tag added by pHEN6 vector

Tests used:
Assay in all cases: library pulldown, LC-MS of supernatant; ratio vs GFP-Nb control (0=captured, 1=not captured)
BC2T A6F = target: T1, BC2T A6F
Outline: (§1)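 Unbound peptide left in supernatant after 1 h pulldown in PBS/0.01% CHAPS measured by reversed-phase LC-MS (8–30% eluent B gradient, 20 min).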

BC2T A6N = target: T2, BC2T A6N
Outline: as §1

BC2T A6Y = target: T3, BC2T A6Y
Outline: as §1

BC2T A6K = target: T4, BC2T A6K
Outline: as §1

BC2T A6R = target: T5, BC2T A6R
Outline: as §1

BC2T A6D = target: T6, BC2T A6D
Outline: as §1

BC2T P1W = target: T7, BC2T P1W
Outline: as §1

BC2T V7P = target: T8, BC2T V7P
Outline: as §1

BC2T V7F = target: T9, BC2T V7F
Outline: as §1

BC2T V7W = target: T10, BC2T V7W
Outline: as §1

BC2T P1S = target: T11, BC2T P1S
Outline: as §1

BC2T V7R = target: T12, BC2T V7R
Outline: as §1

BC2T V7E = target: T13, BC2T V7E
Outline: as §1

BC2T P1E = target: T14, BC2T P1E
Outline: as §1

BC2T D2S = target: T15, BC2T D2S
Outline: as §1

BC2T D2T = target: T16, BC2T D2T
Outline: as §1

BC2T R3Q = target: T17, BC2T R3Q
Outline: as §1

BC2T R3D = target: T18, BC2T R3D
Outline: as §1

BC2T K4Y = target: T19, BC2T K4Y
Outline: as §1

BC2T A5Q = target: T20, BC2T A5Q
Outline: as §1

BC2T A5H = target: T21, BC2T A5H
Outline: as §1

BC2T A5D = target: T22, BC2T A5D
Outline: as §1

Row | Binder | ratio (BC2T A6F) | ratio (BC2T A6N) | ratio (BC2T A6Y) | ratio (BC2T A6K) | ratio (BC2T A6R) | ratio (BC2T A6D) | ratio (BC2T P1W) | ratio (BC2T V7P) | ratio (BC2T V7F) | ratio (BC2T V7W) | ratio (BC2T P1S) | ratio (BC2T V7R) | ratio (BC2T V7E) | ratio (BC2T P1E) | ratio (BC2T D2S) | ratio (BC2T D2T) | ratio (BC2T R3Q) | ratio (BC2T R3D) | ratio (BC2T K4Y) | ratio (BC2T A5Q) | further results
1 | B1 | 1 | 1 | 1 | 1 | 1.1 | 1 | 0.1 | 1 | 0.2 | 0.1 | 0.3 | 0.2 | 0.4 | 0.9 | 0.1 | 0.1 | 0.5 | 1 | 0.2 | 0.2 | ratio (BC2T A5H): 0.2; ratio (BC2T A5D): 0.5
2 | B2 | 0.9 | 1 | 0.9 | 0.8 | 0.7 | 1 | 0.3 | 1 | 0.4 | 0.3 | 0.6 | 0.2 | 0.8 | 0.8 | 0.3 | 0.2 | 0.9 | 1 | 0.5 | 0.3 | ratio (BC2T A5H): 0.3; ratio (BC2T A5D): 0.9
